Consider three substances from patent publication US20080154022A1.

The target of the test is bFGF receptor on BHK-21 (baby hamster kidney derived) cells (hamster). Briefly: displacement of [^125I]-bFGF from BHK-21 cells, radioreceptor assay, IC50 read from the graph.

On to “Recombinant human basic fibroblast growth factor (bFGF) (from UniProt P09038 143-288) (ligand)”, for which the IC50 stood at 0.12 nM.
As for “Complex of bio-bFGF and the OX26/streptavidin conjugate (from UniProt P09038 143-288; P22629 37-163)”, the IC50 came to 0.56 nM.
In turn, “Biotinylated bFGF (monobiotinylated recombinant human bFGF) (from UniProt P09038 143-288) (ligand)” returned an IC50 of 0.4 nM.

For orientation: IC50 means the concentration at which inhibition is half-maximal. Higher therefore signals weaker potency.
